Measurements taken from PMC7797001 (Molecular cell, 2020).

B1: SP-BM purified from bovine lungs (natural protein, UniProt P15781 188-266, looked up)
chain: FPIPIPYCWLCRTLIKRIQAVIPKGVLAMTVAQVCHVVPLLVGGICQCLVERYSVILLDTLLGRMLPQLVCGLVLRCSS

Tests used:
[1] = target: SP-BM generated from human proSP-B by proteinase K (human) (UniProt P07988); assay: reducing and non-reducing SDS-PAGE
non-reducing SDS-PAGE = target: the molecule itself; assay: non-reducing SDS-PAGE

| Molecule | stoichiometry N [1] | stoichiometry N (non-reducing SDS-PAGE) |
| --- | --- | --- |
| SP-BM generated from human proSP-B by proteinase K (from UniProt P07988 201-279) (domain or fragment) | 2 | – |
| B1 | – | 2 |
